Laboratory results taken from patent publication US20240207432A1 (BIOSION, published 2024).
Read-outs that look alike come from different tables or passages of the source.

What was measured:
[1] = molecular target: T1, cynomolgus TROP2-his protein (cynomolgus monkey, UniProt P09758 27-272 (human entry), limits assumed); assay: indirect ELISA, cynomolgus TROP2-his coated at 2 ug/mL, OD(450-630)
T1 construct: no cleavage site is stated; also called Cynomolgus monkey TROP2-his protein; monkey TROP2
T1 chain: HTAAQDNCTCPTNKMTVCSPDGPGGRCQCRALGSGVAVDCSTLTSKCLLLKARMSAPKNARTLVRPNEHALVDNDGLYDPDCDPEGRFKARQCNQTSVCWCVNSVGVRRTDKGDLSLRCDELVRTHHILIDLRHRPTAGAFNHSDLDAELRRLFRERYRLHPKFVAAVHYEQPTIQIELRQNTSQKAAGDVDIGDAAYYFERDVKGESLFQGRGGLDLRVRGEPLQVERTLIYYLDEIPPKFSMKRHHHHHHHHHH
Method: (§1) The anti-TROP2 antibodies of the disclosure were tested for their cross-reaction with cynomolgus TROP2 proteins. Briefly, 96-well micro plates were coated with 100 μl 2 μg/ml cynomolgus TROP2-his proteins (prepared in-house with SEQ ID NO: 70) in carbonate/bicarbonate buffer (pH 9.6) overnight at 4° C. ELISA plates were washed once with wash buffer (PBS+0.05% v/v Tween-20, PBST) and then blocked with 200 μl/well blocking buffer (5% w/v non-fatty milk in PBST) for 2 hours at 37° C. […] After a final wash, plates were incubated with 100 μl/well TMB (Innoreagents) at room temperature. The reaction was stopped 3-10 minutes later at room temperature with 50 μl/well 1M H₂SO₄, and the absorbance of each well was read on a microplate reader using dual wavelength mode with 450 nm for TMB and 630 nm as the reference wavelength. The OD (450-630) values were plotted against antibody concentration. Data was analyzed using Graphpad Prism software and EC₅₀ values were reported.

[2] = molecular target: T1, cynomolgus TROP2-his protein; assay: as above
Method: as §1

human TROP2-his protein [3] = molecular target: T2, human TROP2-his protein (human, UniProt P09758 27-274); assay: SPR Biacore, antibody captured on anti-human IgG CM5 chip, TROP2-his analyte
T2 construct: Biotin-labelled in the ELISAs, unlabelled analyte in Biacore; also called biotin-labeled human TROP2-his protein; biotin human Trop2-his
T2 sequence: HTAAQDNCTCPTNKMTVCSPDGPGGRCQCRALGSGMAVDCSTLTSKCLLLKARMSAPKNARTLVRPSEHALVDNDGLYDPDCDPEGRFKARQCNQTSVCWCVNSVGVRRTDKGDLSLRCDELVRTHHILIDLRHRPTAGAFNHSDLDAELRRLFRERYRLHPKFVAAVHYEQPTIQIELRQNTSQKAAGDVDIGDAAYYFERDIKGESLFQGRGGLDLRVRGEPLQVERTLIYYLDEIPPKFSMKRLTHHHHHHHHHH
Method: (§2) Un-reacted moieties on the chip (biosensor) surface were blocked with ethanolamine. […] The antigen-antibody association kinetics was followed for 2 minutes and the dissociation kinetics was followed for 10 minutes. The association and dissociation curves were fit to a 1:1 Langmuir binding model using BIAcore evaluation software.

[4] = molecular target: T1, cynomolgus TROP2-his protein; assay: as above
Method: as §2

human TROP2-his protein [5] = molecular target: T2, human TROP2-his protein; assay: capture ELISA, antibody captured on anti-human IgG Fc coat, biotin human TROP2-his in solution, OD(450-630)
Method: Plates were washed once with wash buffer (PBS+0.05% v/v Tween-20, PBST) and then blocked with 200 μl/well blocking buffer (5% w/v non-fatty milk in PBST) for 2 hours at 37° C. […] Plates containing captured anti-TROP2 antibodies were incubated with biotin-labeled human TROP2-his protein (prepared in house, SEQ ID NO: 67, 56.7 ng/mL in 2.5% w/v non-fatty milk in PBST, 100 μl/well) for 40 minutes at 37° C., washed 4 times, and incubated with streptavidin conjugated HRP (1:10000 dilution in PBST, Jackson Immuno Research, Cat #016-030-084, 100 μl/well) for 40 minutes at 37° C. After a final wash, plates were incubated with 100 μl/well ELISA substrate TMB (Innoreagents, Cat #TMB-S-002) at room temperature. The reaction was stopped in 3-10 minutes at room temperature with 50 μl/well 1M H₂SO₄, and the absorbance of each well was read on a microplate reader using dual wavelength mode with 450 nm for TMB and 630 nm as the reference wavelength. The OD (450-630) values were plotted against antibody concentration. Data was analyzed using Graphpad Prism software and EC₅₀ values were reported.
For the Capture ELISA, AffiniPure F(ab′)₂ Fragment Goat Anti-Human IgG, Fcγ fragment specific (Jackson Immunoresearch, Cat #109-006-008) was used instead of AffiniPure Goat Anti-Mouse IgG, Fcγ fragment specific, 100 μl/well.

human TROP2-his protein [6] = molecular target: T2, human TROP2-his protein; assay: epitope grouping ELISA, 15 ug/ml antibody premixed with biotin human TROP2-his; competitor: coated huA1E4F7D4-V16
Method: Firstly, capture ELISA was performed to determine the concentration of biotin-labeled human Trop2 proteins appropriate for the epitope binning test. […] The plates were washed for 4 times, added with 100 μl/well of serially diluted biotin human Trop2-his proteins (SEQ ID NO: 67) in PBST with 2.5% non-fatty milk (starting from 1.3 μg/ml with a 5-fold serial dilution), and incubated for 40 min at 37° C. Then the plates were washed for 4 times and added with 100 μl/vell of HRP-streptavidin (Jackson Immuno Research, Cat #016-030-084). The plates were incubated for another 40 min at 37° C. Then the plates were washed again, and 100 μl/well TMB was added for color development at RT for 15 min followed by quenching with 50 μl 1M H₂SO₄. The OD values at 450 nm were read.
With the appropriate concentration determined above, epitope grouping ELISA was performed. […] ELISA plates were washed once with wash buffer (PBS+0.05% v/v Tween-20, PBST) and then blocked with 200 μl blocking buffer (5% w/w non-fatty milk in PBST) for 2 hours at 37° C. […] The mixtures were incubated at room temperature for 40 minutes. After plate washing for 4 times, the antibody/biotin-TROP2-his protein mixtures were added to the antibody coated plates, 100 μl per well, and incubated for another 40 min at 37° C. Then 100 μl/well of HRP-streptavidin was added and incubated for 40 min. Then OD₄₅₀ values were determined and the cross-competition capability was calculated (cross-competition capability of antibody X (%)=(OD₄₅₀ of Antibody X-[…] of Blank)/(OD₄₅₀ of no mAb-OD₄₃₀ of Blank)*100%).

B1: mouse antibody A1E11A12D1 (antibody, V domains shown)
VH: QVQLQQSGAELARPGASVKLSCMASGYTFTTYGISWVRQRTGQGLEWIGQIYPGSDYSYCDEDFKGKATLTADKSSSTAYMQLSSLTSEDSAVYFCARASYFDYWGQGTTLTVSS
VL: DILLTQSPAILSVSPGERVSFSCRASQTIGTAIHWYQQRANGSPRLLIKYASESISGIPSRFSGSGSGTDFALSINTVESEDFAYYYCQQSNNWPFTFGGGTKLEIR
notes: Mouse monoclonal IgG purified from hybridoma supernatant
- EC50 [1]: 0.757 nM

B2: mouse antibody A1H3C5H8E12 (antibody, V domains shown)
VH: QVQLQQSGAELVRPGTSVKMSCKAAGYTFTNYWIDWVKQRPGHGLEWIGNIFPGGFYTNYNEKFKGKATLTADTSSSTAYMQLSSLTSEDSAIYYCARGGVFDYWGQGTTLTVSS
VL: DILLTQSPAILSVSPGERVSFSCRASQSIGTSIHWYQQRTNGSPRLLIKYASESISGIPSRFSGSGSGTDFTLSINSVESEDIADYYCQQSNSWPYTFGGGTKLEIK
notes: as for B1
- EC50 [1]: 0.593 nM

B3: mouse antibody C1B3B12D2 (antibody, V domains shown)
VH: QVQLQQSGPELVRPGTSVKMSCKAAGYTFTKFWIGWVKQRPGHGLEWIGNIYPGGAYINYNENFKGKATLTADTFSSTAYMQLNSLTSADSAIYYCAREGSSGYWGQGTTLTVSS
VL: DIVMTQSPSSLTVTAGEKVTLSCKCSQSLLNSGTQENYLTWYQQKPGQPPKMLIYWASIREPGVPDRFTGSGSGTDFTLTINNVQAEDLAVYYCQHDYSYPFTFGSGTKLEIK
notes: as for B1
- EC50 (read off the curve) [2]: ~0.6 nM

B4: mouse antibody A1E4F7D4 (antibody, V domains shown)
VH: QVQLQQSGAELAKPGTSVKMSCEASGYSFTTHWIHWMKQRPGQGLEWIGTIFPSNAYAVYNQKFRDRAIMTADRSSTTAYIQLTGLTSEDSAVYYCARASYFDYWGQGTTLTVSS
VL: DILLTQSPATLSVSPGERVTFSCRASQNIGTSIHWFQQRTTGSPRLLIKYASESISGIPSRFSGSGSGTDFTLHINSVESEDIAHYYCQHSHSWPFTFGSGTKLEIQ
notes: Mouse monoclonal IgG purified from hybridoma supernatant; also called Mouse A1E4F7D4
- EC50 [1]: 0.576 nM

B5: huA1E4F7D4-V16 (antibody, human IgG1, kappa, V domains shown)
VH: QVQLVQSGAEVKKPGASVKVSCKASGYSFTTHWIHWVRQAPGQGLEWIGTIFPSNAYAVYNQKFRDRATMTADTSISTAYIELSRLRSDDTAVYYCARASYFDYWGQGTTVTVSS
VL: EIVLTQSPATLSLSPGERATLSCRASQNIGTSIHWFQQKPGGAPRLLIKYASESISGIPSRFSGSGSGTDFTLTISSLEPEDFAVYYCQHSHSWPFTFGQGTKLEIKR
notes: Positions of the X residues are given in the claims; also called humanized antibody huA1E4F7D4-V16
- Kd (human TROP2-his protein [3]): 0.183 nM
- koff (human TROP2-his protein [3]): 0.000195 s⁻¹
- kon (human TROP2-his protein [3]): 1.06e+06 M⁻¹ s⁻¹
- Kd [4]: 0.132 nM
- koff [4]: 0.000164 s⁻¹
- kon [4]: 1.25e+06 M⁻¹ s⁻¹
- EC50 (human TROP2-his protein [5]): 0.054 nM
- OD450 (human TROP2-his protein [6]): 0.027 OD450

B6: benchmark (in house prepared sacituzumab) (antibody, human IgG1, kappa, V domains shown)
VH: SVQLQQSGSELKKPGASVKVSCKASGYTFTNYGMNWVKQAPGQGLKWMGWINTYTGEPTYTDDFKGRFAFSLDTSVSTAYLQISSLKADDTAVYFCARGGFGSSYWYFDVWGQGSLVTVSS
VL: DIQLTQSPSSLSASVGDRVSITCKASQDVSIAVAWYQQKPGKAPKLLIYSASYRYTGVPDRFSGSGSGTDFTLTISSLQPEDFAVYYCQQHYITPLTFGAGTKVEIKR
notes: also called BM; BM1
- Kd (human TROP2-his protein [3]): 0.983 nM
- Kd [4]: 0.529 nM
- EC50 [1]: 0.134 nM
- EC50 (human TROP2-his protein [5]): 0.316 nM
- OD450 (human TROP2-his protein [6]): 1.61 OD450
- EC50 [2]: 0.385 nM
